Values of other authors in patent publication US10973880B2, “Compositions and methods for treating pulmonary hypertension” (Acceleron Pharma Inc., priority 2016, dated 2021).

T1: GDF11 (Homo sapiens, UniProt O95390)
T1 sequence (O95390 299-407): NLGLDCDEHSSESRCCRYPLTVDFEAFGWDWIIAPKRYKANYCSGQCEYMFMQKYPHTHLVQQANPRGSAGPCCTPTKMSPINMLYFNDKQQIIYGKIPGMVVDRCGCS


Molecular target: T1, GDF11
Settings: reproduced from WO2006/012627; cited from earlier work

Molecule	GDF11 binding relative to WT
K74Y: soluble ActRIIB-Fc variant K74Y (protein, left off: a dimerising Fc or GST) SGRGEAETRECIYYNANWELERTNQSGLERCEGEQDKRLHCYASWANSSGTIELVYKGCWLDDFNCYDRQECVATEENPQVYFCCCEGNFCNERFTHLPEA	−− (<1/5 WT binding)
D80I: soluble ActRIIB-Fc variant D80I (protein, left off: a dimerising Fc or GST) SGRGEAETRECIYYNANWELERTNQSGLERCEGEQDKRLHCYASWANSSGTIELVKKGCWLIDFNCYDRQECVATEENPQVYFCCCEGNFCNERFTHLPEA	−− (<1/5 WT binding)
WT (64R): soluble ActRIIB-Fc, wild type with arginine at position 64 (WO2006/012627) (protein, left off: a dimerising Fc or GST) SGRGEAETRECIYYNANWELERTNQSGLERCEGEQDKRLHCYASWRNSSGTIELVKKGCWLDDFNCYDRQECVATEENPQVYFCCCEGNFCNERFTHLPEA	(+++) (~5× increased binding)
K74I: soluble ActRIIB-Fc variant K74I (protein, left off: a dimerising Fc or GST) SGRGEAETRECIYYNANWELERTNQSGLERCEGEQDKRLHCYASWANSSGTIELVIKGCWLDDFNCYDRQECVATEENPQVYFCCCEGNFCNERFTHLPEA	−− (<1/5 WT binding)
K74F: soluble ActRIIB-Fc variant K74F (protein, left off: a dimerising Fc or GST) SGRGEAETRECIYYNANWELERTNQSGLERCEGEQDKRLHCYASWANSSGTIELVFKGCWLDDFNCYDRQECVATEENPQVYFCCCEGNFCNERFTHLPEA	−− (<1/5 WT binding)
